Measurements from US20080108569A1, “Compositions and Methods for Treating Diseases Associated With Phlpp” (The Regents of the University of California, priority 2005, published 2008).

Molecular target: endogenous Akt (UniProt P31749)
Test: cell-based or functional assay

endogenous Akt, sequence (P31749 whole entry): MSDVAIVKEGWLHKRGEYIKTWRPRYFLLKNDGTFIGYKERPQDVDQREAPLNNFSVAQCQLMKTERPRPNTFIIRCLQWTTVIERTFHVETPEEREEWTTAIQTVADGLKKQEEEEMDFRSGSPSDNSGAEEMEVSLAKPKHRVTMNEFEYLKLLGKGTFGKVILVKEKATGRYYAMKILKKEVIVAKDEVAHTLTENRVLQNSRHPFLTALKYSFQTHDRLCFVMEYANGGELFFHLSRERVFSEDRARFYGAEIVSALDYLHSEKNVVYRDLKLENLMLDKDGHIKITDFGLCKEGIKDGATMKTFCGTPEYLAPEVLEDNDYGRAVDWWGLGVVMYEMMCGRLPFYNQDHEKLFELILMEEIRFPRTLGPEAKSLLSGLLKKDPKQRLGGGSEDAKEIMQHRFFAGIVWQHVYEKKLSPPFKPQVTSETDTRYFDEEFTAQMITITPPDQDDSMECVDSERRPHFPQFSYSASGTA

With “endogenous PHLPP2 (from UniProt Q6ZVD8 1-1323)” the increase in Akt phosphorylation at Ser 473 on siRNA knock down of PHLPP2 in 293T cells was 2 fold.

In the case of “endogenous PHLPP2 (from UniProt Q6ZVD8 1-1323) (enzyme)”, the increase in Ser473 phosphorylation on siRNA knock down of PHLPP2 in H157 cells is reported as 4 fold.
